Assay results taken from publication PMC9352726 (Nature Communications, 2022).

What was measured:
[1] = target: T1, purified recombinant YspE1, full length (Yersinia pestis, UniProt A0A3N4BII9 1-626); experiment: SPR; Biacore T200; […] (0–20 μM) […] (20 mM HEPES pH 7.4, 150 mM NaCl, 3.4 mM EDTA, 0.005% P20); 25 °C; settings: both partners purified
T1 sequence: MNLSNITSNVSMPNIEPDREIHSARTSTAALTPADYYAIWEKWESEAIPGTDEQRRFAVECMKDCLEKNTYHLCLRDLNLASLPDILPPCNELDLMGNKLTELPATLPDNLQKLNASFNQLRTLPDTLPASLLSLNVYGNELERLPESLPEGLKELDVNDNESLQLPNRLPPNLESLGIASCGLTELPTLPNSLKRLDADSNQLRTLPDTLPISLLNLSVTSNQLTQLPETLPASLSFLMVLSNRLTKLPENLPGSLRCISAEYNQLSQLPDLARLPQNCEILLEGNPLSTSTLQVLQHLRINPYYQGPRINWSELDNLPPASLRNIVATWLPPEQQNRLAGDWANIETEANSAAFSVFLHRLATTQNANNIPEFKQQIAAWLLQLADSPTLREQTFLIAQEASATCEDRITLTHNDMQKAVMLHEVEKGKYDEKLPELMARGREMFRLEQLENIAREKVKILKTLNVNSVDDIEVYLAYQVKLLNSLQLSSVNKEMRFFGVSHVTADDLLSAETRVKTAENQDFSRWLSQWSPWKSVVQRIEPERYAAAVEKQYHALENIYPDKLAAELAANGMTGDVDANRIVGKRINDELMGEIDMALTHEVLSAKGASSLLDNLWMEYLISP

[2] = target: T2, purified recombinant YspE2, full length (Yersinia pestis, UniProt A0AAP0VE47 1-605); experiment: as above; settings: both partners purified
T2 sequence: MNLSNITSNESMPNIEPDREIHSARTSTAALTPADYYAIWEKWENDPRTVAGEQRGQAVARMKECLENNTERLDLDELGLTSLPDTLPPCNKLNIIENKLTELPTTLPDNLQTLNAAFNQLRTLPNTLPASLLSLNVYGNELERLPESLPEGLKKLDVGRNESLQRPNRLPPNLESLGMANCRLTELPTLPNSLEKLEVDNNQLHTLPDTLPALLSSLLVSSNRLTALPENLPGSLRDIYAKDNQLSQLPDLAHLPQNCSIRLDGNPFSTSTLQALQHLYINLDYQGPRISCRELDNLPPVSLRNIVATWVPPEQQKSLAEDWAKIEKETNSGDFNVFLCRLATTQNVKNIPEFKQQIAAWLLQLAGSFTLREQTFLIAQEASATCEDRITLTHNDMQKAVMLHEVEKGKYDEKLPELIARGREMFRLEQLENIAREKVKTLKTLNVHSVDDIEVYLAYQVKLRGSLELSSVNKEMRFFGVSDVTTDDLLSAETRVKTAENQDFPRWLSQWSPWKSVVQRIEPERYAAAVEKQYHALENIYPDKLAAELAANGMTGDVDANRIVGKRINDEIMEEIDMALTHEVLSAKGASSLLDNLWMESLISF

B1: purified recombinant human guanylate-binding protein 1 (hGBP1) (natural protein, UniProt P32455 1-592, looked up)
chain: MASEIHMTGPMCLIENTNGRLMANPEALKILSAITQPMVVVAIVGLYRTGKSYLMNKLAGKKKGFSLGSTVQSHTKGIWMWCVPHPKKPGHILVLLDTEGLGDVEKGDNQNDSWIFALAVLLSSTFVYNSIGTINQQAMDQLYYVTELTHRIRSKSSPDENENEVEDSADFVSFFPDFVWTLRDFSLDLEADGQPLTPDEYLTYSLKLKKGTSQKDETFNLPRLCIRKFFPKKKCFVFDRPVHRRKLAQLEKLQDEELDPEFVQQVADFCSYIFSNSKTKTLSGGIQVNGPRLESLVLTYVNAISSGDLPCMENAVLALAQIENSAAVQKAIAHYEQQMGQKVQLPTETLQELLDLHRDSEREAIEVFIRSSFKDVDHLFQKELAAQLEKKRDDFCKQNQEASSDRCSALLQVIFSPLEEEVKAGIYSKPGGYRLFVQKLQDLKKKYYEEPRKGIQAEEILQTYLKSKESMTDAILQTDQTLTEKEKEIEVERVKAESAQASAKMLQEMQRKNEQMMEQKERSYQEHLKQLTEKMENDRVQLLKEQERTLALKLQEQEQLLKEGFQKESRIMKNEIQDLQTKMRRRKACTIS
notes: also called pSUMO-hGBP1
[1]
  Kd: 370 nM
[2]
  Kd: 1500 nM
